How the values were obtained:
β2AR365N = biological target: T1, β2AR365N (human, UniProt P07550 2-365); experiment: not described
T1 construct: also called non-fused β2AR365N; human β2 adrenergic receptor Gly2 to Gly365, N187E

[1] = biological target: T2, human mu-opioid receptor (hMor1) (human, UniProt P35372 6-360); experiment: cell-based or functional assay
[2] = biological target: T2, human mu-opioid receptor (hMor1); experiment: not described

T2 sequence (P35372 6-360, tags or fused parts left off): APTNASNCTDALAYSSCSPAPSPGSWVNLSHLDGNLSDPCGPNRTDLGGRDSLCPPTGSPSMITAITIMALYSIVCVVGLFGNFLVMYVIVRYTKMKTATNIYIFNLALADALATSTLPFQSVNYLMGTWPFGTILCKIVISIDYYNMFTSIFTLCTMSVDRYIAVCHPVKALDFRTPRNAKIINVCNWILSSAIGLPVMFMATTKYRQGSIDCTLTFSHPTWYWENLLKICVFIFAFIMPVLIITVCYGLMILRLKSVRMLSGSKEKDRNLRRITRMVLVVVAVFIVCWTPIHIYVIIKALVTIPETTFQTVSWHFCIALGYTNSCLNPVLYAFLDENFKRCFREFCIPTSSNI

B1: Nb69 (VHH)
VHH: QVQLQESGGGLVQAGGSLRLSCTASGLTLSNYAMGWFRQAPGKEREFVAADTWNGNTYHQDSVKGRFTISRDNAKNTVYLQMNYLKPEDTAVYYCAARGSRRSAYYSSSDYTYRGQGTQVTVSS
notes: Described as specific for the rat muscarinic receptor M3; Used as the mock fusion partner and as an exogenously added control; also called CA5669; mock Single-domain antibody
binding result (β2AR365N): no binding

B2: Nb33 (VHH)
VHH: QVQLQESGGGLVRPGGSRRLSCVDSERTSYPMGWFRRAPGKEREFVASITWSGIDPTYADSVADRFTISRDVANNTLYLQMNSLKHEDTAVYYCAARAPVGQSSSPYDYDYWGQGTQVTVSS
IC50 ratio, Dmt1-Dalda: hMor1-34GS-Nb10 versus hMor1-34GS-Nb33 fusion ([3H]-diprenorphine competition, Sf9 membranes; Nb fused to the receptor) [1]: 36 ratio
IC50 ratio, KGOP01: hMor1-34GS-Nb10 versus hMor1-34GS-Nb33 fusion [1]: 20 ratio
IC50 ratio, naloxone: hMor1-34GS-Nb10 versus hMor1-34GS-Nb33 fusion [1]: 2 ratio

B3: Nb10 (VHH)
VHH: QVQLQESGGGLVQPGGSLRLSCAASGSFRSIVSMAWYRQAPGKQRELVASSNSGGSTNYADSVKGRFTISRDNAKNTVYLQMNSLKPEDTAVYWCNVQNRLPGFDAFSGRSIAETYWGQGTQVTVSS
notes: also called CA4910; irrelevant Single-domain antibody
binding result [2]: no binding
